Test results from article PMC9548623.

B1: DH272.2 Fab (Fab, V domains shown)
VH: QVQLVQSGAEVKKPGASVKVSCQASGYRVSDHFVNWMRQAPGQRLEWIGWFNPDSRDTHYADKFKGRVTSTKIGNTVYMQLSSLRSDDTAVYYCARERYDFHSGLEGSFDFWGQGTLVTV
VL: DIVMTQSPLSLPVTLGQPASISCRSSQSLVHNYGNTYLNWFQQRPGQSPRRLIYKVSGRDSGVPDRFSGGGSGTDFTLKISSVEAEDVGVYYCMQGTHWPRTFGQGTKLEIN

Experiments:
[1] = biological target: DH475 Fab, heavy chain N31A (human); assay: BLI; BLItz; Fab (0.2 mg/mL) immobilised on Anti-Human Fab-CH1 2nd Generation (FAB2G) biosensors, Env constructs titrated; 2.5 mM Tris pH 7.5, 350 mM NaCl; global fit
[2] = biological target: DH475 Fab, heavy chain W104A (human); assay: as above
[3] = biological target: DH475 Fab, heavy chain D77A (human); assay: as above
[4] = biological target: DH475 Fab, heavy chain N30A (human); assay: as above
[5] = biological target: CH848 TF DS SOSIP Env trimer (HIV-1 (donor CH848, transmitted/founder)); assay: ITC; 157 uM DH272.2 injected into a cell with 7.59 uM CH848 TF DS SOSIP Env; single site model

DH475 Fab, heavy chain W104A (human), sequence (heavy, as listed by the source, chain 1 of 2): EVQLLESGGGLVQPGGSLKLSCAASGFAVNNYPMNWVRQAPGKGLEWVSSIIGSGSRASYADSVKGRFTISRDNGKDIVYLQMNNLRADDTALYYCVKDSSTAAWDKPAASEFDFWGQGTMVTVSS
DH475 Fab, heavy chain W104A (human), sequence (light, as listed by the source, chain 2 of 2): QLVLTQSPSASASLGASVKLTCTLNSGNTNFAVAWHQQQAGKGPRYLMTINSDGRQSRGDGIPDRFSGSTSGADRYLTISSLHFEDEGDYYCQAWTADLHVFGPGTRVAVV
DH475 Fab, heavy chain N31A (human), sequence (heavy, as listed by the source, chain 1 of 2): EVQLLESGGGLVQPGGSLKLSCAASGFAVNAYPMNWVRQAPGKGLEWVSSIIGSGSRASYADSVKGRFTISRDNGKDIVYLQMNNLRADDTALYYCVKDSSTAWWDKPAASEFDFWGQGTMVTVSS
DH475 Fab, heavy chain N31A (human), sequence (light, as listed by the source, chain 2 of 2): as the sequence (light, as listed by the source, chain 2 of 2) above
DH475 Fab, heavy chain N30A (human), sequence (heavy, as listed by the source, chain 1 of 2): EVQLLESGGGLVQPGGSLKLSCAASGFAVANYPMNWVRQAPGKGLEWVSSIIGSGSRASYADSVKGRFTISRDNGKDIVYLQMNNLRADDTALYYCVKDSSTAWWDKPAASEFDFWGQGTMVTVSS
DH475 Fab, heavy chain N30A (human), sequence (light, as listed by the source, chain 2 of 2): as the sequence (light, as listed by the source, chain 2 of 2) above
DH475 Fab, heavy chain D77A (human), sequence (heavy, as listed by the source, chain 1 of 2): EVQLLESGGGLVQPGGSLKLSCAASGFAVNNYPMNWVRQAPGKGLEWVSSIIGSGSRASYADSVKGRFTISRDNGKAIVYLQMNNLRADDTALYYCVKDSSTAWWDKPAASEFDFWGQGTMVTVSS
DH475 Fab, heavy chain D77A (human), sequence (light, as listed by the source, chain 2 of 2): as the sequence (light, as listed by the source, chain 2 of 2) above

Molecule	Kd [1] [µM]	Kd [2] [µM]	Kd [3] [µM]	Kd [4] [µM]	stoichiometry N [5]
CH848 transmitted/founder (TF) gp120 core (domain or fragment)	> 50	> 50	> 50	> 50	
B1					3
